{
  "source": "paper PMC3419727",
  "about": "“Identifying the Hotspots on the Top Faces of WD40-Repeat Proteins from Their Primary Sequences by β-Bulges and DHSW Tetrads” (PLoS ONE, 2012)",
  "binders": {"B1": {"name": "C-terminal region of S. pombe Fep1 (amino acids 319–564) (domain or fragment, UniProt Q10134 319-564, looked up)", "chain": "AAGEPDNNGKVYYSYGPTQEQSILPLPENKHEGLPPYQNEYVPNGIRANQVVYPGQLVAVGNDSSKQLSESTTSNTDNNGVATANQSNPLGMKFHLPPILPVGESVCLPPRTSAKPRIAEGIASLLNPEEPPSNSDKQPSMSNGPKSEVSPSQSQQAPLIQSSTSPVSLQFPPEVQGSNVDKRNYALNVLSQLRSQHDLMIQELHNLNQHIQQIDEWLRSSDNENMASEHIKSSTPAVVASGALQT", "notes": "Fep1, GATA-factor, S. pombe, C-terminal region, amino acids 319-564"}},
  "test_in_all_cases": "ITC; Fep1 (~1.4 mM) injected, 2 µl each time, into Tup11 WT or mutant (~0.2 mM); 25°C; 1×PBS pH 7.4, 150 mM NaCl; iTC200 (MicroCal); Fep1 into buffer subtracted as background",
  "settings_in_all_cases": "both partners purified",
  "key": {"[1]": {"target": "T1, S. japonicus Tup11 WD40 domain (301–630) Leu524Ala (S. japonicus, UniProt B6JV84 301-630, Leu524Ala)", "T1 construct": "Tup11, S. japonicus, WD40 domain, amino acids 301-630", "T1 sequence (looked up)": "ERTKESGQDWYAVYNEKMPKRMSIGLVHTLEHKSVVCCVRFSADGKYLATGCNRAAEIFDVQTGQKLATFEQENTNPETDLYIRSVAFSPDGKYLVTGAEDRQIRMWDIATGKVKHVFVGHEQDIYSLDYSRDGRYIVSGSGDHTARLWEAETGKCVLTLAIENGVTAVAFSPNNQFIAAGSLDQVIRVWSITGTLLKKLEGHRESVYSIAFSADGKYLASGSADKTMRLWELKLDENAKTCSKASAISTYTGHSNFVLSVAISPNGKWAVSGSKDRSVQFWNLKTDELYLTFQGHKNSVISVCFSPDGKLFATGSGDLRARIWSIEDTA"}, "[2]": {"target": "T2, S. japonicus Tup11 WD40 domain (301–630) Lys575Ala (S. japonicus, UniProt B6JV84 301-630, Lys575Ala)", "T2 construct": "Tup11, S. japonicus, WD40 domain, amino acids 301-630", "T2 sequence (looked up)": "T1 sequence (looked up) with A224L, K275A"}, "[3]": {"target": "T3, S. japonicus Tup11 WD40 domain (301–630) Cys337Ala (S. japonicus, UniProt B6JV84 301-630, Cys337 substituted by Ala)", "T3 construct": "Tup11, S. japonicus, WD40 domain, amino acids 301-630; also called Cyc337", "T3 sequence (looked up)": "T1 sequence (looked up) with C37A, A224L"}, "[4]": {"target": "T4, S. japonicus Tup11 WD40 domain (301–630) Tyr508Ala (S. japonicus, UniProt B6JV84 301-630, Tyr508 substituted by Ala)", "T4 construct": "Tup11, S. japonicus, WD40 domain, amino acids 301-630", "T4 sequence (looked up)": "T1 sequence (looked up) with Y208A, A224L"}, "[5]": {"target": "T5, S. japonicus Tup11 WD40 domain (301–630) Ile601Ala (S. japonicus, UniProt B6JV84 301-630, Ile601Ala)", "T5 construct": "Tup11, S. japonicus, WD40 domain, amino acids 301-630", "T5 sequence (looked up)": "T1 sequence (looked up) with A224L, I301A"}},
  "note": "Substitutions are numbered along the chain they refer to.",
  "data": [
    {"binder": "B1", "values": [
      {"measurement": "binding result", "setting": "[1]", "value": "binds"},
      {"measurement": "reduction of binding free energy against wild type", "setting": "[2]", "value": "~1.9", "unit": "kcal/mol"},
      {"measurement": "binding result", "setting": "[3]", "value": "binds"},
      {"measurement": "binding result", "setting": "[4]", "value": "binds"},
      {"measurement": "binding result", "setting": "[5]", "value": "binds"}
    ]}
  ]
}
